Experimental data: the Human Domainome abundance scans (Beltran et al. 2025)
± gives the uncertainty stated by the source.

B1: Transcription elongation regulator 1-like protein, residues 448 to 504; numbered along this chain, Q5VWI1 (parent)
chain: LPLEERVTHFRDMLLERGVSAFSTWEKELHKIVFDPRYLLLNSEERKQIFEQFVKTR

Variants of: B1
Experiment: abundance fitness (aPCA) (normalised: wild type 0, dead -1); higher = more abundant; growth selection in yeast, the domain comes from the species named
Settings: Homo sapiens

Point of comparison: LPLEERVTHMRDMLLERGVSAFSTWEKELHKIVFDPRYLLLNSEERKQIFEQFVKTR [F10M], abundance fitness -0.782 ± 0.2. Against it:
- LPLEERVTHGRDMLLERGVSAFSTWEKELHKIVFDPRYLLLNSEERKQIFEQFVKTR [F10G] — within error, -0.727 ± 0.11
- LPLEERVTHPRDMLLERGVSAFSTWEKELHKIVFDPRYLLLNSEERKQIFEQFVKTR [F10P] — within error, -0.227 ± 0.46
- LPLEERVTHNRDMLLERGVSAFSTWEKELHKIVFDPRYLLLNSEERKQIFEQFVKTR [F10N] — within error, -0.237 ± 0.43
- LPLEERVTHCRDMLLERGVSAFSTWEKELHKIVFDPRYLLLNSEERKQIFEQFVKTR [F10C] — within error, -1.1 ± 0.32
- LPLEERVTHARDMLLERGVSAFSTWEKELHKIVFDPRYLLLNSEERKQIFEQFVKTR [F10A] — within error, -0.717 ± 0.14
- LPLEERVTHHRDMLLERGVSAFSTWEKELHKIVFDPRYLLLNSEERKQIFEQFVKTR [F10H] — higher, 0.065 ± 0.34
- LPLEERVTHQRDMLLERGVSAFSTWEKELHKIVFDPRYLLLNSEERKQIFEQFVKTR [F10Q] — within error, -0.884 ± 0.34
- LPLEERVTHLRDMLLERGVSAFSTWEKELHKIVFDPRYLLLNSEERKQIFEQFVKTR [F10L] — within error, -0.682 ± 0.21
- LPLEERVTHRRDMLLERGVSAFSTWEKELHKIVFDPRYLLLNSEERKQIFEQFVKTR [F10R] — within error, -0.677 ± 0.15
- LPLEERVTEFRDMLLERGVSAFSTWEKELHKIVFDPRYLLLNSEERKQIFEQFVKTR [H9E] — within error, -0.234 ± 0.35
- LPLEERVTFFRDMLLERGVSAFSTWEKELHKIVFDPRYLLLNSEERKQIFEQFVKTR [H9F] — within error, -0.475 ± 0.48
- LPLEERVTMFRDMLLERGVSAFSTWEKELHKIVFDPRYLLLNSEERKQIFEQFVKTR [H9M] — higher, 0.266 ± 0.075
- LPLEERVTQFRDMLLERGVSAFSTWEKELHKIVFDPRYLLLNSEERKQIFEQFVKTR [H9Q] — higher, 0.232 ± 0.15
- LPLEERVTVFRDMLLERGVSAFSTWEKELHKIVFDPRYLLLNSEERKQIFEQFVKTR [H9V] — higher, -0.274 ± 0.19
- LPLEERVTYFRDMLLERGVSAFSTWEKELHKIVFDPRYLLLNSEERKQIFEQFVKTR [H9Y] — higher, -0.236 ± 0.2
- LPLEERVTAFRDMLLERGVSAFSTWEKELHKIVFDPRYLLLNSEERKQIFEQFVKTR [H9A] — higher, 0.001 ± 0.076
- LPLEERVTIFRDMLLERGVSAFSTWEKELHKIVFDPRYLLLNSEERKQIFEQFVKTR [H9I] — higher, 0.378 ± 0.39
- LPLEERVTGFRDMLLERGVSAFSTWEKELHKIVFDPRYLLLNSEERKQIFEQFVKTR [H9G] — within error, -0.554 ± 0.23
- LPLEERVTRFRDMLLERGVSAFSTWEKELHKIVFDPRYLLLNSEERKQIFEQFVKTR [H9R] — higher, -0.202 ± 0.14
- LPLEERVTCFRDMLLERGVSAFSTWEKELHKIVFDPRYLLLNSEERKQIFEQFVKTR [H9C] — higher, -0.201 ± 0.079
- LPLEERVTKFRDMLLERGVSAFSTWEKELHKIVFDPRYLLLNSEERKQIFEQFVKTR [H9K] — higher, 0.157 ± 0.089
- LPLEERVTTFRDMLLERGVSAFSTWEKELHKIVFDPRYLLLNSEERKQIFEQFVKTR [H9T] — within error, -0.456 ± 0.15
- LPLEERVTDFRDMLLERGVSAFSTWEKELHKIVFDPRYLLLNSEERKQIFEQFVKTR [H9D] — higher, -0.024 ± 0.43
- LPLEERVTWFRDMLLERGVSAFSTWEKELHKIVFDPRYLLLNSEERKQIFEQFVKTR [H9W] — within error, -0.328 ± 0.31
- LPLEERVTLFRDMLLERGVSAFSTWEKELHKIVFDPRYLLLNSEERKQIFEQFVKTR [H9L] — higher, 0.279 ± 0.11
- LPLEERVTSFRDMLLERGVSAFSTWEKELHKIVFDPRYLLLNSEERKQIFEQFVKTR [H9S] — higher, -0.073 ± 0.12
- LPLEARVTHFRDMLLERGVSAFSTWEKELHKIVFDPRYLLLNSEERKQIFEQFVKTR [E5A] — within error, -0.73 ± 0.24
- LPLEMRVTHFRDMLLERGVSAFSTWEKELHKIVFDPRYLLLNSEERKQIFEQFVKTR [E5M] — within error, -0.254 ± 0.45
- LPLEFRVTHFRDMLLERGVSAFSTWEKELHKIVFDPRYLLLNSEERKQIFEQFVKTR [E5F] — within error, -0.481 ± 0.35
- LPLEYRVTHFRDMLLERGVSAFSTWEKELHKIVFDPRYLLLNSEERKQIFEQFVKTR [E5Y] — within error, -0.483 ± 0.24
- LPLEQRVTHFRDMLLERGVSAFSTWEKELHKIVFDPRYLLLNSEERKQIFEQFVKTR [E5Q] — within error, -0.357 ± 0.31
- LPLETRVTHFRDMLLERGVSAFSTWEKELHKIVFDPRYLLLNSEERKQIFEQFVKTR [E5T] — within error, -0.553 ± 0.46
- LPLEWRVTHFRDMLLERGVSAFSTWEKELHKIVFDPRYLLLNSEERKQIFEQFVKTR [E5W] — within error, -0.715 ± 0.39
- LPLEPRVTHFRDMLLERGVSAFSTWEKELHKIVFDPRYLLLNSEERKQIFEQFVKTR [E5P] — within error, -0.697 ± 0.19
- LPLEVRVTHFRDMLLERGVSAFSTWEKELHKIVFDPRYLLLNSEERKQIFEQFVKTR [E5V] — higher, -0.416 ± 0.097
- LPLEKRVTHFRDMLLERGVSAFSTWEKELHKIVFDPRYLLLNSEERKQIFEQFVKTR [E5K] — within error, -0.535 ± 0.41
- LPLEIRVTHFRDMLLERGVSAFSTWEKELHKIVFDPRYLLLNSEERKQIFEQFVKTR [E5I] — higher, -0.06 ± 0.16
- LPLECRVTHFRDMLLERGVSAFSTWEKELHKIVFDPRYLLLNSEERKQIFEQFVKTR [E5C] — higher, -0.303 ± 0.12
- LPLELRVTHFRDMLLERGVSAFSTWEKELHKIVFDPRYLLLNSEERKQIFEQFVKTR [E5L] — within error, -0.565 ± 0.12
- LPLESRVTHFRDMLLERGVSAFSTWEKELHKIVFDPRYLLLNSEERKQIFEQFVKTR [E5S] — higher, -0.375 ± 0.19
- LPLERRVTHFRDMLLERGVSAFSTWEKELHKIVFDPRYLLLNSEERKQIFEQFVKTR [E5R] — higher, -0.01 ± 0.17
- LPLEGRVTHFRDMLLERGVSAFSTWEKELHKIVFDPRYLLLNSEERKQIFEQFVKTR [E5G] — higher, -0.195 ± 0.19
- LPLKERVTHFRDMLLERGVSAFSTWEKELHKIVFDPRYLLLNSEERKQIFEQFVKTR [E4K] — higher, 0.132 ± 0.16
- LPLPERVTHFRDMLLERGVSAFSTWEKELHKIVFDPRYLLLNSEERKQIFEQFVKTR [E4P] — within error, -0.711 ± 0.29
- LPLSERVTHFRDMLLERGVSAFSTWEKELHKIVFDPRYLLLNSEERKQIFEQFVKTR [E4S] — higher, 0.033 ± 0.21
